Source: PMC5734868 (ACS infectious diseases, 2017)

Target: the molecule itself
Test: SDS-PAGE of semi-denatured protein

B1: PanD 114Stop (aspartate decarboxylase domain without the C-terminal tail) (domain or fragment)
chain: MLRTMLKSKIHRATVTCADLHYVGSVTIDADLMDAADLLEGEQVTIVDIDNGARLVTYAITGERGSGVIGINGAAAHLVHPGDLVILIAYATMDDARARTYQPRIVFVDAYNKP
- binding result: binds
